Experimental data from PMC11949052.

B1: C1-esterase inhibitor (C1-INH): N253A (protein)
parent chain: MASRLTLLTLLLLLLAGDRASSNPNATSSSSQDPESLQDRGEGKVATTVISKMLFVEPILEVSSLPTTNSTTNSATKITANTTDEPTTQPTTEPTTQPTIQPTQPTTQLPTDSPTQPTTGSFCPGPVTLCSDLESHSTEAVLGDALVDFSLKLYHAFSAMKKVETNMAFSPFSIASLLTQVLLGAGENTKTNLESILSYPKDFTCVHQALKGFTTKGVTSVSQIFHSPDLAIRDTFVNASRTLYSSSPRVLSNNSDANLELINTWVAKNTNNKISRLLDSLPSDTRLVLLNAIYLSAKWKTTFDPKKTRMEPFHFKNSVIKVPMMNSKKYPVAHFIDQTLKAKVGQLQLSHNLSLVILVPQNLKHRLEDMEQALSPSVFKAIMEKLEMSKFQPTLLTLPRIKVTTSQDMLSIMEKLEFFDFSYDLNLCGLTEDPDLQVSAMQHQTVLELTETGVEAAAASAISVARTLLVFEVQQPFLFVLWDQQHKFPVFMGRVYDPRA
B2: C1-esterase inhibitor (C1-INH): S255G (protein)
parent chain: MASRLTLLTLLLLLLAGDRASSNPNATSSSSQDPESLQDRGEGKVATTVISKMLFVEPILEVSSLPTTNSTTNSATKITANTTDEPTTQPTTEPTTQPTIQPTQPTTQLPTDSPTQPTTGSFCPGPVTLCSDLESHSTEAVLGDALVDFSLKLYHAFSAMKKVETNMAFSPFSIASLLTQVLLGAGENTKTNLESILSYPKDFTCVHQALKGFTTKGVTSVSQIFHSPDLAIRDTFVNASRTLYSSSPRVLSNNSDANLELINTWVAKNTNNKISRLLDSLPSDTRLVLLNAIYLSAKWKTTFDPKKTRMEPFHFKNSVIKVPMMNSKKYPVAHFIDQTLKAKVGQLQLSHNLSLVILVPQNLKHRLEDMEQALSPSVFKAIMEKLEMSKFQPTLLTLPRIKVTTSQDMLSIMEKLEFFDFSYDLNLCGLTEDPDLQVSAMQHQTVLELTETGVEAAAASAISVARTLLVFEVQQPFLFVLWDQQHKFPVFMGRVYDPRA
B3: C1-esterase inhibitor (C1-INH): N238A (protein)
parent chain: MASRLTLLTLLLLLLAGDRASSNPNATSSSSQDPESLQDRGEGKVATTVISKMLFVEPILEVSSLPTTNSTTNSATKITANTTDEPTTQPTTEPTTQPTIQPTQPTTQLPTDSPTQPTTGSFCPGPVTLCSDLESHSTEAVLGDALVDFSLKLYHAFSAMKKVETNMAFSPFSIASLLTQVLLGAGENTKTNLESILSYPKDFTCVHQALKGFTTKGVTSVSQIFHSPDLAIRDTFVNASRTLYSSSPRVLSNNSDANLELINTWVAKNTNNKISRLLDSLPSDTRLVLLNAIYLSAKWKTTFDPKKTRMEPFHFKNSVIKVPMMNSKKYPVAHFIDQTLKAKVGQLQLSHNLSLVILVPQNLKHRLEDMEQALSPSVFKAIMEKLEMSKFQPTLLTLPRIKVTTSQDMLSIMEKLEFFDFSYDLNLCGLTEDPDLQVSAMQHQTVLELTETGVEAAAASAISVARTLLVFEVQQPFLFVLWDQQHKFPVFMGRVYDPRA
B4: C1-esterase inhibitor (C1-INH): N352A (protein)
parent chain: MASRLTLLTLLLLLLAGDRASSNPNATSSSSQDPESLQDRGEGKVATTVISKMLFVEPILEVSSLPTTNSTTNSATKITANTTDEPTTQPTTEPTTQPTIQPTQPTTQLPTDSPTQPTTGSFCPGPVTLCSDLESHSTEAVLGDALVDFSLKLYHAFSAMKKVETNMAFSPFSIASLLTQVLLGAGENTKTNLESILSYPKDFTCVHQALKGFTTKGVTSVSQIFHSPDLAIRDTFVNASRTLYSSSPRVLSNNSDANLELINTWVAKNTNNKISRLLDSLPSDTRLVLLNAIYLSAKWKTTFDPKKTRMEPFHFKNSVIKVPMMNSKKYPVAHFIDQTLKAKVGQLQLSHNLSLVILVPQNLKHRLEDMEQALSPSVFKAIMEKLEMSKFQPTLLTLPRIKVTTSQDMLSIMEKLEFFDFSYDLNLCGLTEDPDLQVSAMQHQTVLELTETGVEAAAASAISVARTLLVFEVQQPFLFVLWDQQHKFPVFMGRVYDPRA
B5: C1-esterase inhibitor (C1-INH): N352S (protein)
parent chain: MASRLTLLTLLLLLLAGDRASSNPNATSSSSQDPESLQDRGEGKVATTVISKMLFVEPILEVSSLPTTNSTTNSATKITANTTDEPTTQPTTEPTTQPTIQPTQPTTQLPTDSPTQPTTGSFCPGPVTLCSDLESHSTEAVLGDALVDFSLKLYHAFSAMKKVETNMAFSPFSIASLLTQVLLGAGENTKTNLESILSYPKDFTCVHQALKGFTTKGVTSVSQIFHSPDLAIRDTFVNASRTLYSSSPRVLSNNSDANLELINTWVAKNTNNKISRLLDSLPSDTRLVLLNAIYLSAKWKTTFDPKKTRMEPFHFKNSVIKVPMMNSKKYPVAHFIDQTLKAKVGQLQLSHNLSLVILVPQNLKHRLEDMEQALSPSVFKAIMEKLEMSKFQPTLLTLPRIKVTTSQDMLSIMEKLEFFDFSYDLNLCGLTEDPDLQVSAMQHQTVLELTETGVEAAAASAISVARTLLVFEVQQPFLFVLWDQQHKFPVFMGRVYDPRA
B6: C1-esterase inhibitor (C1-INH): S354G (protein)
parent chain: MASRLTLLTLLLLLLAGDRASSNPNATSSSSQDPESLQDRGEGKVATTVISKMLFVEPILEVSSLPTTNSTTNSATKITANTTDEPTTQPTTEPTTQPTIQPTQPTTQLPTDSPTQPTTGSFCPGPVTLCSDLESHSTEAVLGDALVDFSLKLYHAFSAMKKVETNMAFSPFSIASLLTQVLLGAGENTKTNLESILSYPKDFTCVHQALKGFTTKGVTSVSQIFHSPDLAIRDTFVNASRTLYSSSPRVLSNNSDANLELINTWVAKNTNNKISRLLDSLPSDTRLVLLNAIYLSAKWKTTFDPKKTRMEPFHFKNSVIKVPMMNSKKYPVAHFIDQTLKAKVGQLQLSHNLSLVILVPQNLKHRLEDMEQALSPSVFKAIMEKLEMSKFQPTLLTLPRIKVTTSQDMLSIMEKLEFFDFSYDLNLCGLTEDPDLQVSAMQHQTVLELTETGVEAAAASAISVARTLLVFEVQQPFLFVLWDQQHKFPVFMGRVYDPRA

Assay: ELISA and Western blot of HEK293T supernatants
Settings: glycan lost; control: wild type

| Protein | expression_or_secretion, percent_of_wt |
| --- | --- |
| B1 | no change |
| B2 | no change |
| B3 | no change |
| B4 | no change |
| B5 | no change |
| B6 | no change |
